Design: species or system Bacillus subtilis
Text: Figure S1 CtpB Autocleavage and Dimerization, Related to Figures 1 and 2 (A) SDS-PAGE analysis monitoring auto-degradation of CtpB. […] (C) Comparison of the gelfiltration profiles of wild-type CtpB and a Δ86 construct lacking the N-terminal dimerization domain. An SDS-PAGE analysis is shown below the chromatograms. (D) Cleavage assays comparing the activity of wild-type and Δ86 CtpB against the 4B predigested 4FAproc substrate.

Row | Molecule | auto-degradation
1 | WT: wild-type CtpB, PDZ-protease of B. subtilis (protein, UniProt O35002 24-480, looked up) Carboxy-terminal processing …: GINLLEMDKPQTAAVPATAQADSERDKAMDKIEKAYELISNEYVEKVDREKLLEGAIQGMLSTLNDPYSVYMDKQTAKQFSDSLDSSFEGIGAEVGMEDGKIIIVSPFKKSPAEKAGLKPNDEIISINGESMAGKDLNHAVLKIRGKKGSSVSMKIQRPGTKKQLSFRIKRAEIPLETVFASEKKVQGHSVGYIAISTFSEHTAEDFAKALRELEKKEIEGLVIDVRGNPGGYLQSVEEILKHFVTKDQPYIQIAERNGDKKRYFSTLTHKKAYPVNVITDKGSASASEILAGALKEAGHYDVVGDTSFGKGTVQQAVPMGDGSNIKLTLYKWLTPNGNWIHKKGIEPTIAIKQPDYFSAGPLQLKEPLKVDMNNEDVKHAQVLLKGLSFDPGREDGYFSKDMKKAVMAFQDQNKLNKTGVIDTRTAETLNQQIEKKKSDEKNDLQLQTALKSLFVN | auto-degraded at position 36 and 42
2 | CtpBS309A: inactive CtpB S309A mutant (protein, UniProt O35002 24-480, looked up, variant S309A) Carboxy-terminal processing …: GINLLEMDKPQTAAVPATAQADSERDKAMDKIEKAYELISNEYVEKVDREKLLEGAIQGMLSTLNDPYSVYMDKQTAKQFSDSLDSSFEGIGAEVGMEDGKIIIVSPFKKSPAEKAGLKPNDEIISINGESMAGKDLNHAVLKIRGKKGSSVSMKIQRPGTKKQLSFRIKRAEIPLETVFASEKKVQGHSVGYIAISTFSEHTAEDFAKALRELEKKEIEGLVIDVRGNPGGYLQSVEEILKHFVTKDQPYIQIAERNGDKKRYFSTLTHKKAYPVNVITDKGSAAASEILAGALKEAGHYDVVGDTSFGKGTVQQAVPMGDGSNIKLTLYKWLTPNGNWIHKKGIEPTIAIKQPDYFSAGPLQLKEPLKVDMNNEDVKHAQVLLKGLSFDPGREDGYFSKDMKKAVMAFQDQNKLNKTGVIDTRTAETLNQQIEKKKSDEKNDLQLQTALKSLFVN | no further degradation
